In patent US20030236190A1 (published 2003):
Positions of bridges follow the written chain, without caps; N, C: chain ends. No end group written: not given here.

B1: H6Hα-4-G8-IR (peptide)
peptide: GGTKAVAKVGTRDDPFYHKLSELLQGS
B2: A6L-0-E6-IR (peptide)
peptide: YRGMLVLGRSSDGAGKVAFERPARIGQTVFAVNFYDWFV
B3: B6L-4-D7-IR (peptide)
peptide: AETSVQVGWIRLQSVWPGEHWNTVDPFYHKLSELLRGSGA
B4: B6Hα-2-D1-IR (peptide)
peptide: GCEVIVEEGDSADPFYHKLSELCQGS
modifications: disulfide 2-23 (inferred)
B5: B6Hα-3-F10-IR (peptide)
peptide: GCVVEWQKWHGASDPFYHKLSELGGCS
modifications: disulfide 2-26 (inferred)
B6: H2CA-4-H6-IGFR (peptide)
peptide: VGRASGFPENFYDWFGRQLSLQSGEQ
B7: H2CA-4-H8-IGFR (peptide)
peptide: SACQFDCHENFYDWFARQVSGGAAYG
modifications: not fully specified (bridges); cysteine pairing not given here
B8: B6Hα-3-F7-IR (peptide)
peptide: SRVAATKEKRPSDDPFYHKLSELLQGS
B9: B6Hα-3-E7-IR (peptide)
peptide: GCAVVEEAERSRGDPFYHKLSELIQGC
modifications: disulfide 2-27 (inferred)
B10: H2CA-4-F11-IGFR (peptide)
peptide: SAAQLFFQESFYDWFLRQVAESSQPN
B11: B6Hα-2-D6-IR (peptide)
peptide: GRTMAVMAAGGPDDPFYHKLSELVQGG
B12: H2CA-4-F5-IGFR (peptide)
peptide: VGYQGQGDENFYDWFIRQVSGRLGVQ
B13: B6Hα-1-A3-IR (peptide)
peptide: SRAKVEAEMPDSGDPFYHKLSELLASG
B14: 20E2A-3-A12-IGFR (peptide)
peptide: LSVALSFYDALGQLVAGEGRW
B15: H2CA-4-G9-IGFR (peptide)
peptide: GIISQSCPESFYDWFAGQVSDPWWCW
B16: 20E2A-3-D10-IGFR (peptide)
peptide: MMVVDGFYDALHQLVVAQSLG
B17: RB622 (peptide)
peptide: MADYKDDDDKWLDQEWAWVQCEVYGRGCPSTPKPPTPPPLSADGSLDESFYDWFERQLGKKAAAGAPVPYPDPLEPRPG
notes: Recombinant F6-F1 dimer peptide with tags at both ends
B18: RB537 (peptide)
peptide: MADYKDDDDKGSLDESFYDWFERQLGKKGGSGGSWLDQEWAWVQCEVYGRGCPSAAAGAPVPYPDPLEPRPG
notes: Recombinant F1-F6 (Site 1-Site 2) dimer peptide with tags at both ends
B19: RB509 (peptide)
peptide: DYKDDDDKVRVDWLQRNANFYAWFVAELGGGSGGSGGSGGSGRVDWLQRNANFYDWFVAELGAAAGAPVPYPDPLEPRAA
B20: RB463 (other, not shown: large carriers)
chain: NNNNLGIEGRISEFIEGRAQPAMAFHENFYDWFVRQVSGGSFHENFYDWFVRQVSAAAGAPVPYPDPLEPRAA
notes: MBP fusion, uncleaved
B21: RB539 (peptide)
peptide: MADYKDDDDKWLDQEWAWVQCEVYGRGCPSGGSGGSGSLDESFYDWFERQLGKKAAAGAPVPYPDPLEPRPG
notes: Recombinant F6-F1 (Site 2-Site 1) dimer peptide with tags at both ends
B22: RB535 (peptide)
peptide: MADYKDDDDKGSLDESFYDWFERQLGKKGGSGGSGGSGGSGSLDESFYDWFERQLGKKAAAGAPVPYPDPLEPRPG
notes: Recombinant F1-F1 dimer peptide with tags at both ends
B23: RB569 (peptide)
peptide: MGSLDESFYDWFERQLGEEEGGDHHHHHHPG
notes: F1 monomer with a His tag
B24: RB521 (peptide)
peptide: MADYKDDDDKGSLDESFYDWFERQLGKKGGSGGSGSLDESFYDWFERQLGKKAAAGAPVPYPDPLEPRPG
notes: as for B22
B25: RB436 (other, not shown: large carriers)
chain: NNNNLGIEGRISEFIEGRAQPAMAFHENFYDWFVRQVSGGSGGSGGSFHENFYDWFVRQVSAAAGAPVPYPDPLEPRAA
notes: MBP fusion, uncleaved
B26: RB626 (peptide)
peptide: MADYKDEIEAEWGRVRCLVYGRCVGGGGSGGSGGSGGSGSLDESFYDWFERQLGKKAAAGAPVPYPDPLEPRPG
notes: as for B17
B27: RB540 (peptide)
peptide: MADYKDDDDKWLDQEWAWVQCEVYGRGCPSAAAGAPVPYPDPLEPRPG
notes: Recombinant F6 monomer peptide with tags at both ends
B28: RB508 (peptide)
peptide: DYKDDDDKVRVDWLQRNANFYDWFVAELGGGSGGSGRVDWLQRNANFYDWFVAELGAAAGAPVPYPDPLEPRSA
B29: RB437 (other, not shown: large carriers)
chain: NNNNLGIEGRISEFIEGRAQPAMAFHENFYDWFVRQVSAAAGAPVPYPDPLEPRAA
notes: MBP fusion, uncleaved
B30: RB517 (peptide)
peptide: DYKDDDDKHLCVLEELFWGASLFGYCSGGGSGGSHLCVLEELFWGASLFGYCSGAAAGAPVPYPDPLEPRAA
B31: RB625 (peptide)
peptide: MADYKDDDDKWLDQEWAWVQCEVYGRGCPSQPPPPDITTHRADPQGSLDESFYDWFERQLGKKAAAGAPVPYPDPLEPRPG
notes: as for B17
B32: RB435 (other, not shown: large carriers)
chain: NNNNLGIEGRISEFIEGRAQPAMAFHENFYDWFVRQVSGGSFHENFYDWFVRQVSGGSFHENFYDWFVRQVSAAAGAPVPYPDPLEPRAA
notes: MBP fusion, uncleaved
B33: RB596 (peptide)
peptide: MQNDDGSLDESFYDWFERQLGHHHHHHPG
notes: F1 monomer with a His tag
B34: RB538 (peptide)
peptide: MADYKDDDDKGSLDESFYDWFERQLGKKGGSGGSGGSGGSWLDQEWAWVQCEVYGRGCPSAAAGAPVPYPDPLEPRPG
notes: as for B18

target: T1, Soluble IGF-1R (R&D Systems, Cat. # 391-GR/CF); recombinant human IGF-1R (human, UniProt P08069 31-935); experiment: phage ELISA, vs IR
T1 construct: extracellular domain; Eu3+-labelled in the TR-FRET assays; also called sIGF-1R; rhIGF-1R

Row | Binder | IGF-1R/IR Comparison [ratio]
1 | B1 | 3.6
2 | B2 | 17
3 | B3 | 3.4
4 | B4 | 4.2
5 | B5 | 4.6
6 | B6 | 14.6
7 | B7 | 9.4
8 | B8 | 3.1
9 | B9 | 4.3
10 | B10 | 6.7
11 | B11 | 4.4
12 | B12 | 12.3
13 | B13 | 3.3
14 | B14 | 3.9
15 | B15 | 16
16 | B16 | 3.9

target: T2, Insulin receptor prepared according to Bass et al., 1996: soluble human insulin receptor-immunoglobulin heavy … (human, UniProt P06213 28-956); experiment: phage ELISA, vs IGF-1R
T2 construct: extracellular domain; Eu3+-labelled in TR-FRET; also called IR; sIR-Fc; not shown: immunoglobulin heavy chain constant domains that replace the transmembrane and i

Row | Binder | IR/IGF-1R Comparison [ratio]
17 | B1 | 0.3
18 | B2 | 0.1
19 | B3 | 0.3
20 | B4 | 0.2
21 | B5 | 0.2
22 | B6 | 0.1
23 | B7 | 0.1
24 | B8 | 0.3
25 | B9 | 0.2
26 | B10 | 0.1
27 | B11 | 0.2
28 | B12 | 0.1
29 | B13 | 0.3
30 | B14 | 0.3
31 | B15 | 0.1
32 | B16 | 0.3

target: T1, Soluble IGF-1R (R&D Systems, Cat. # …); experiment: phage ELISA vs milk

Row | Binder | Ratio over Background [fold]
33 | B1 | 6.1
34 | B2 | 31
35 | B3 | 4.8
36 | B4 | 5.4
37 | B5 | 8.8
38 | B6 | 10.5
39 | B7 | 9.2
40 | B8 | 3.1
41 | B9 | 5.6
42 | B10 | 6.8
43 | B11 | 4.4
44 | B12 | 9.7
45 | B13 | 2.6
46 | B14 | 4.3
47 | B15 | 9.5
48 | B16 | 6.9

target: T2, Insulin receptor prepared according to …; experiment: phage ELISA vs milk

Row | Binder | Ratio over Background [fold]
49 | B1 | 1.7
50 | B2 | 1.8
51 | B3 | 1.4
52 | B4 | 1.3
53 | B5 | 1.9
54 | B6 | 0.7
55 | B7 | 1
56 | B8 | 1
57 | B9 | 1.3
58 | B10 | 1
59 | B11 | 1
60 | B12 | 0.8
61 | B13 | 0.8
62 | B14 | 1.1
63 | B15 | 0.6
64 | B16 | 1.8

target: human insulin receptor (HIR) (human, UniProt P06213 28-1382, limits assumed); experiment: HIR Kd, Table 14; competition with 125I-insulin on solubilised HIR (method of Example 3, not restated for this table)

Row | Binder | Kd [nM]
65 | B17 | 1
66 | B18 | 0.059
67 | B19 | 55
68 | B20 | 960
69 | B21 | 0.7
70 | B22 | ~100
71 | B23 | 210
72 | B24 | 44
73 | B25 | 410
74 | B26 | 0.3
75 | B27 | ~100
76 | B28 | 150
77 | B29 | 8300
78 | B30 | 6000
79 | B31 | 0.38
80 | B32 | 2000
81 | B33 | 94
82 | B34 | 0.017
